Experimental data as given in patent publication US11491212.

Molecular target: Factor X (FX), P00742
Sequence (P00742 whole entry, looked up): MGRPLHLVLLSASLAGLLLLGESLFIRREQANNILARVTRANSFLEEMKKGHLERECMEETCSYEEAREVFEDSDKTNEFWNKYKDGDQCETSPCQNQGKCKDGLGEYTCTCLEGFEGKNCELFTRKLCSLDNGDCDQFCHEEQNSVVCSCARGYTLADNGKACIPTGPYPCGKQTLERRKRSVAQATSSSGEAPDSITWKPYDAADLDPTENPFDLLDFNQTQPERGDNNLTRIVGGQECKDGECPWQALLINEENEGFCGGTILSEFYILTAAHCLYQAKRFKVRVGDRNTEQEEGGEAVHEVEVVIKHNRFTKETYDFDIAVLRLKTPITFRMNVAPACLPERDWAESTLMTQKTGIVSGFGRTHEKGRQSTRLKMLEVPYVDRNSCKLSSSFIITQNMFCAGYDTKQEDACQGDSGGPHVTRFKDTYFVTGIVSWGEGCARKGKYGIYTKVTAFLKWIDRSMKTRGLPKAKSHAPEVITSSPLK

B1: FIXa Y155F/K228N/K247N/N249S (protein)
chain 1: not shown
chain 2: not shown
Q: For B1, which kcat (Catalytic activity of FIXa variants) is on record?
A: Its kcat (Catalytic activity of FIXa variants) is 4.3 s⁻¹.

B2: FIXa K228N/K247N/N249S/R318Y/R338E/R403E/E410N (protein)
chain 1: not shown
chain 2: not shown
Q: With B2 as the protein, how does the kcat (Catalytic activity of FIXa variants) read?
A: The kcat (Catalytic activity of FIXa variants) was 6.1 s⁻¹.

B3: FIXa R318Y/R338E/R403E/E410N/T412V (protein)
chain 1: not shown
chain 2: not shown
Q: How did the kcat (Catalytic activity of FIXa variants) turn out when B3 was run?
A: The kcat (Catalytic activity of FIXa variants) was 7.9 s⁻¹.

B4: FIXa R318Y/R338E/R403E/E410N/T412A (protein)
chain 1: not shown
chain 2: not shown
Q: Which kcat (Catalytic activity of FIXa variants) does the source give for B4 here?
A: The kcat (Catalytic activity of FIXa variants) was 8.4 s⁻¹.

B5: FIXa R318Y/R338E/T412A (protein)
chain 1: not shown
chain 2: not shown
Q: For B5, which kcat (Catalytic activity of FIXa variants) is on record?
A: Its kcat (Catalytic activity of FIXa variants) is 7 s⁻¹.

B6: FIXa R318Y/R338E/E410N/T412V (protein)
chain 1: not shown
chain 2: not shown
Q: Which kcat (Catalytic activity of FIXa variants) does the source give for B6 here?
A: The kcat (Catalytic activity of FIXa variants) was 6.3 s⁻¹.

B7: FIXa-R338E/R403E/E410N (protein)
chain 1: not shown
chain 2: not shown
Q: What does the source list for B7?
A: KM: 0.0367 µM; KM for FX activation by FIXa in the Xase complex (FVIIIa/PC-PS/Ca2+), fluorogenic Spectrafluor FXa assay: 0.0455 µM; kcat: 5.8 s⁻¹

B8: FIXa-Y155F/R338E/R403E/E410N (protein)
chain 1: not shown
chain 2: not shown
Q: B8 was tested. Which kcat did it give?
A: Its kcat is 5.9 s⁻¹.

B9: FIXa-Y155F/R318Y/R338E/R403E (protein)
chain 1: not shown
chain 2: not shown
Q: What does the source list for B9?
A: KM: 0.0671 µM; kcat: 5.1 s⁻¹

B10: FIXa-D203N/F205T/K228N (protein)
chain 1: not shown
chain 2: not shown
Q: For B10, which KM is on record?
A: Its KM is 0.0399 µM.

Q: What about the KM for FX activation by FIXa in the Xase complex (FVIIIa/PC-PS/Ca2+), fluorogenic Spectrafluor FXa assay of the same protein?
A: The KM for FX activation by FIXa in the Xase complex (FVIIIa/PC-PS/Ca2+), fluorogenic Spectrafluor FXa assay was 0.0399 µM.

Q: And the kcat?
A: Its kcat is 0.6 s⁻¹.

B11: FIXa-D203N/F205T/E410N (protein)
chain 1: not shown
chain 2: not shown
Q: For B11, which KM is on record?
A: The KM was 0.0455 µM.

Q: And the KM for FX activation by FIXa in the Xase complex (FVIIIa/PC-PS/Ca2+), fluorogenic Spectrafluor FXa assay?
A: The KM for FX activation by FIXa in the Xase complex (FVIIIa/PC-PS/Ca2+), fluorogenic Spectrafluor FXa assay was 0.0455 µM.

Q: And the kcat?
A: The kcat was 1.7 s⁻¹.

B12: FIXa-D203N/F205T/R338E (protein)
chain 1: not shown
chain 2: not shown
Q: How did the KM turn out when B12 was run?
A: Its KM is 0.0241 µM.

Q: And the KM for FX activation by FIXa in the Xase complex (FVIIIa/PC-PS/Ca2+), fluorogenic Spectrafluor FXa assay?
A: Its KM for FX activation by FIXa in the Xase complex (FVIIIa/PC-PS/Ca2+), fluorogenic Spectrafluor FXa assay is 0.0241 µM.

Q: And the kcat?
A: Its kcat is 2.5 s⁻¹.

B13: FIXa-D203N/F205T/R338A (protein)
chain 1: not shown
chain 2: not shown
Q: What does the source list for B13?
A: KM: 0.0385 µM; KM for FX activation by FIXa in the Xase complex (FVIIIa/PC-PS/Ca2+), fluorogenic Spectrafluor FXa assay: 0.0385 µM; kcat: 2.3 s⁻¹

B14: FIXa-D203N/F205T/R318Y (protein)
chain 1: not shown
chain 2: not shown
Q: B14 was tested. Which KM did it give?
A: Its KM is 0.0475 µM.

Q: What about the KM for FX activation by FIXa in the Xase complex (FVIIIa/PC-PS/Ca2+), fluorogenic Spectrafluor FXa assay of the same protein?
A: The KM for FX activation by FIXa in the Xase complex (FVIIIa/PC-PS/Ca2+), fluorogenic Spectrafluor FXa assay was 0.0475 µM.

Q: And the kcat?
A: Its kcat is 0.9 s⁻¹.
